Test [1] has as its target SARS-CoV-2 spike protein on virus (CoV/Australia/VIC01/2020) (SARS-CoV-2, UniProt P0DTC2 14-1273). Put plainly: cell-based or functional assay.
The target in test [2] is T1, SARS-CoV-2 RBD-Ig (SARS-CoV-2; mouse, UniProt P0DTC2 319-541).
Test [3] has as its target SARS-CoV-2 spike protein expressed on Ramos-S cells (SARS-CoV-2, UniProt P0DTC2 14-1273).
In test [4] the target is T1, SARS-CoV-2 RBD-Ig. Put plainly: ELISA: ACE2-Fc titrated on immobilised RBD-Ig (A450), curve fit. (An ELISA detects its analyte on a solid surface through an enzyme-linked reagent.)

Positions count from the first letter of the chain named. “And” between values parts separate entries of the source, which are not always exact repeats. Identical values can stand only once. Like-named read-outs stand apart in the source and are kept apart here.

B1: EflACE2-Fc-H429Y (Fc fusion)
chain: ETGSTIEEQAKYFLDKFNHEAEDLFYQSSLASWNYNTNITEENVQNMNNAGDKWSAFLKEQSTTAQMYPLQEIQNLTVKLQLQALQQNGSSVLSEDKSKRLNTILNTMSTIYSTGKVCNPDNPQECLLLEPGLNEIMANSLDYNERLWAWESWRSEVGKQLRPLYEEYVVLKNEMARANHYEDYGDYWRGDYEVNGVDGYDYSRGQLIEDVEHTFEEIKPLYEHLHAYVRAKLMNAYPSYISPIGCLPAHLLGDMWGRFWTNLYSLTVPFGQKPNIDVTDAMVDQAWDAQRIFKEAEKFFVSVGLPNMTQGFWEYSMLTDPGNVQKAVCHPTAWDLGKGDFRILMCTKVTMDDFLTAHHEMGHIQYDMAYAAQPFLLRNGANEGFHEAVGEIMSLSAATPKHLKSIGLLSPDFQEDNETEINFLLKQALTIVGTLPFTYMLEKWRWMVFKGEIPKDQWMKKWWEMKREIVGVVEPVPHDETYCDPASLFHVSNDYSFIRYYTRTLYQFQFQEALCQAAKHEGPLHKCDISNSTEAGQKLFNMLRLGKSEPWTLALENVVGAKNMNVRPLLNYFEPLFTWLKDQNKNSFVGWSTDWSPYADQSIKVRISLKSALGDRAYEWNDNEMYLFRSSVAYAMRQYFLKVKNQMILFGEEDVRVANLKPRISFNFFVTAPKNVSDIIPRTEVEKAIRMSRSRINDAFRLNDNSLEFLGIQPTLGPPNQPPVSGGGGSTHTCPPCPAPELLGGPSVFLFPPKPKDTLMISRTPEVTCVVVDVSHEDPEVKFNWYVDGVEVHNAKTKPREEQYNSTYRVVSVLTVLHQDWLNGKEYKCKVSNKALPAPIEKTISKAKGQPREPQVYTLPPSREEMTKNQVSLTCLVKGFYPSDIAVEWESNGQPENNYKTTPPVLDSDGSFFLYSKLTVDKSRWQQGNVFSCSVMYEALHNHYTQKSLSLSPGK
notes: also called EflACE2-Fc-H429Yoli; Yoli
Consider B1, for which, in test [1], the “fold of neutralisation activity over unfused trACE2” value was greater than 600 fold. Moreover, the concentration for a half-maximal effect (EC50) (usually the concentration giving half of the maximal effect) in the test with SARS-CoV-2 RBD-Ig [2] was 0.38 nM and 0.6 nM.

B2: EflACE2-Fc-H429F (Fc fusion)
chain: B1 chain with Y937F
notes: also called EflACE2-Fc F
With B2, the EC50 is 2.1 nM in test [3] and 0.21 nM with SARS-CoV-2 RBD-Ig [4].

Source of the values: US20260158160A1 (MACFARLANE BURNET INSTITUTE FOR MEDICAL RESEARCH AND PUBLIC …, published 2026).
